In US20060292672:

Target: T1, rhPTH(1-34)Gly35-OH, P01270
T1 chain: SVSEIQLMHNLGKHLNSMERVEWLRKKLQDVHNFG

B1: peptidylglycine alpha-amidating monooxygenase expressed by cell line UGL 73-26/M (protein)
chain: FRSPLSVFKRFKETTRSFSNECLGTIGPVTPLDASDFALDIRMPGVTPKESDTYFCMSMRLPVDEEAFVIDFKPRASMDTVHHMLLFGCNMPSSTGSYWFCDEGTCTDKANILYAWARNAPPTRLPKGVGFRVGGETGSKYFVLQVHYGDISAFRDNHKDCSGVSVHLTRVPQPLIAGMYLMMSVDTVIPPGEKVVNADISCQYKMYPMHVFAYRVHTHHLGKVVSGYRVRNGQWTLIGRQNPQLPQAFYPVEHPVDVTFGDILAARCVFTGEGRTEATHIGGTSSDEMCNLYIMYYMEAKYALSFMTCTKNVAPDMFRTIPAEANIPIPVKPDMVMMHGHHKEAENKEKSALMQQPKQGEEEVLEQDFHVEEELDWPGVYLLPGQVSGVALDSKNNLVIFHRGDHVWDGNSFDSKFVYQQRGLGPIEEDTILVIDPNNAEILQSSGKNLFYLPHGLSIDTDGNYWVTDVALHQVFKLDPHSKEGPLLILGRSMQPGSDQNHFCQPTDVAVEPSTGAVFVSDGYCNSRIVQFSPSGKFVTQWGEESSGSSPRPGQFSVPHSLALVPHLDQLCVADRENGRIQCFKTDTKEFVREIKHASFGRNVFAISYIPGFLFAVNGKPYFGDQEPVQGFVMNFSSGEIIDVFKPVRKHFDMPHDIVASEDGTVYIGDAHTNTVWKFTLTEKMEHRSV
- overall yield of rhPTH(1-34)-NH2 from enzymatic amidation (preparative reaction followed by CEX and RP purification): yielding 11.8 grams (95% overall yield from amidation) of rhPTH(1-34)-NH2
